The text below walks through data of patent US20240116985A1 (published 2024).

What is called EC50 is the concentration that produces a half-maximal response. The IC50 is the concentration needed to halve the response being measured. A low value points to greater potency in that assay.

Starred links: 1 amine or outer side, 2 acyl side, 3 side chain; linkers in the order of their positions; H or OH if unused. Positions of bridges follow the written chain, without caps; N, C: chain ends. Non-standard residues stand in square brackets, D forms with d. Primed or numbered codes have the meaning given here. B5(6) = 2-amino-2-(pent-4-en-1-yl)hept-6-enoic acid (bis(4-pentenyl)glycine), stitching residue, C=CCCCC(CCCC=C)(N[*:1])C(=O)[*:2]; B5 = 2-amino-2-(pent-4-en-1-yl)hept-6-enoic acid, C=CCCCC(CCCC=C)(N[*:1])C(=O)[*:2]; Phe(3-OMe) = COc1cccc(C[C@H](N)C(=O)O)c1; Bta = N[C@@H](Cc1csc2ccccc12)C(=O)O; αAllylPro = C=CC[C@@]1(C(=O)O)CCCN1; S8 = C=CCCCCCC[C@](C)(N)C(=O)O

For experiment [1], the target named is T1, full-length beta-Catenin (Uniprot ID P35222) (Homo sapiens (Human), UniProt P35222 1-781).
T1 construct: also called bCat; B-Catenin
T1 sequence: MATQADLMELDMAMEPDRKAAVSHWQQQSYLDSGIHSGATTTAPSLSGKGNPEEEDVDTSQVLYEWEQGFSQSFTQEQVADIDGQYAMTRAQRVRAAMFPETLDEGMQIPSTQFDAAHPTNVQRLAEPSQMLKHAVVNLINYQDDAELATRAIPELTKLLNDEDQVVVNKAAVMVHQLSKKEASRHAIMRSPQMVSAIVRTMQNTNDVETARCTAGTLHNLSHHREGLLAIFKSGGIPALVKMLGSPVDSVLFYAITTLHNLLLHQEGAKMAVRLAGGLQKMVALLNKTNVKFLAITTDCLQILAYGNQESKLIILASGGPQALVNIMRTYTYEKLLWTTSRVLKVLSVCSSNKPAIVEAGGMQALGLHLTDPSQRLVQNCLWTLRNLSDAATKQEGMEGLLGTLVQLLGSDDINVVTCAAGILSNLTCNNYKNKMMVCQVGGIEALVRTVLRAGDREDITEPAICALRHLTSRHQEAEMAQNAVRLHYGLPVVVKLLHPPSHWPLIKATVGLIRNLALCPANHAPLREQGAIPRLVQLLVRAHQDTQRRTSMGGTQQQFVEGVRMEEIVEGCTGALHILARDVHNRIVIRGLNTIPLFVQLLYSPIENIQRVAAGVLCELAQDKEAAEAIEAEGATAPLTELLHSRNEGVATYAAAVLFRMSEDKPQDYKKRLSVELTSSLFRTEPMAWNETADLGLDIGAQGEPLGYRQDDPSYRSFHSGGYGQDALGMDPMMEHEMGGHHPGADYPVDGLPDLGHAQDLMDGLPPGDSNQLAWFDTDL
Description: fluorescence polarization competition; full-length beta-catenin with 5FAM-labeled TCF4 residues 10-53 probe as competitor. The method in brief:
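Readings followed a light-protected 60-minute incubation at 20° C. Each read was done in duplicate. Curves were fit with a 1:1 binding model including hill slope, and stated concentrations are final.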
For orientation: In fluorescence polarisation assays a small probe gives low polarisation when free and higher when bound to something large.

The target of experiment [2] is T2, B-cat-Halo (beta-catenin HaloTag NanoBRET construct expressed in HEK293 cells) (UniProt P35222 1-781).
T2 construct: Transfected together with TCF4-Luc into HEK293 cells; not shown: HaloTag
T2 sequence (looked up): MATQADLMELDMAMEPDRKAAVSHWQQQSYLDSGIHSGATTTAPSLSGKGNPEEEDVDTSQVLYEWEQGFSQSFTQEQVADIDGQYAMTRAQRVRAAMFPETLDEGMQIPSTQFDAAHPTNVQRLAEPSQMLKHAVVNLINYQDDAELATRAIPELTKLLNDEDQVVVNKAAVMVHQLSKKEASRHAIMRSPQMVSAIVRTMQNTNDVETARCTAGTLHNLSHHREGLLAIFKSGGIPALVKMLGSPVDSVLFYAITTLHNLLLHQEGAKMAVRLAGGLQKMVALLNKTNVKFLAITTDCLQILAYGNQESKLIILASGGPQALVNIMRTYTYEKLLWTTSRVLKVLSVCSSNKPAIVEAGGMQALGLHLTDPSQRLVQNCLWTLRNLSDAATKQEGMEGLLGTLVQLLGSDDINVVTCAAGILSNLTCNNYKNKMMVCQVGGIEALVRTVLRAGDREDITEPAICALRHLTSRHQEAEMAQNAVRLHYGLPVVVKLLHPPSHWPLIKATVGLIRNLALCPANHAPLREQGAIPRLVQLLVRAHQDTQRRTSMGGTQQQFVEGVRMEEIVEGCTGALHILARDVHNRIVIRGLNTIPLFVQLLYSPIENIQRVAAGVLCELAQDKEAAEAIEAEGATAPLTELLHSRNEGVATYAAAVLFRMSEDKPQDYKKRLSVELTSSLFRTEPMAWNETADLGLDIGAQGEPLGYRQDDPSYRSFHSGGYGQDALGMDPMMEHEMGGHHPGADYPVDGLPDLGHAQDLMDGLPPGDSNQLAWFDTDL
Description: NanoBRET target engagement in HEK293 cells (B-cat-Halo / TCF4-Luc); competitor TCF4-Luc. A general note: BRET reads energy transfer from a luciferase to a nearby fluorophore.

Experiment [3] deals with T3, beta-catenin in DLD1 TCF/LEF luciferase reporter cells (Homo sapiens (Human), UniProt P35222 1-781).
T3 sequence: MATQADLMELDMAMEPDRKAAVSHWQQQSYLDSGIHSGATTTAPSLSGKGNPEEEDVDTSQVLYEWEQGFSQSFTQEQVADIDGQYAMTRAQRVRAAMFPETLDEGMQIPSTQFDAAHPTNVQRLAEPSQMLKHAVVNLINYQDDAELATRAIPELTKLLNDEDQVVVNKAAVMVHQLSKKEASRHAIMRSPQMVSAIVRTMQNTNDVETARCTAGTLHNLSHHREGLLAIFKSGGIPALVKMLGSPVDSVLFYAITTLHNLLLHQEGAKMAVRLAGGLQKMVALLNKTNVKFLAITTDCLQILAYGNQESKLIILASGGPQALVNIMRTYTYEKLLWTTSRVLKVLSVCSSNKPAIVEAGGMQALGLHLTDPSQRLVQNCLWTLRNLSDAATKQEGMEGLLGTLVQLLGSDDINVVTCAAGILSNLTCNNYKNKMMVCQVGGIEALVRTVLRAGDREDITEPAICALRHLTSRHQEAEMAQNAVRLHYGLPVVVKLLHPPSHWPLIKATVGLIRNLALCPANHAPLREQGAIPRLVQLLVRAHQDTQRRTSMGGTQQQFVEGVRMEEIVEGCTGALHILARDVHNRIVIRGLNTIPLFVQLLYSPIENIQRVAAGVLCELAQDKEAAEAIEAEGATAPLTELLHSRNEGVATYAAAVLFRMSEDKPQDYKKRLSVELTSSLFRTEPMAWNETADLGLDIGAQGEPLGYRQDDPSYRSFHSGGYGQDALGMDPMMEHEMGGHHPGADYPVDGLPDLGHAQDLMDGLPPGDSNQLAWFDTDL
Nature of the experiment: cell-based or functional assay.

The target of experiment [4] is T2, B-cat-Halo (beta-catenin HaloTag …). Description: NanoBRET target engagement in HEK293 cells (B-cat-Halo / TCF4-Luc); absolute IC50; competitor TCF4-Luc.
For experiment [5], the target named is T4, full-length beta-Catenin (Uniprot ID P35222) (Homo sapiens (Human), UniProt P35222 1-781).
T4 construct: also called bCat; B-Catenin
T4 sequence: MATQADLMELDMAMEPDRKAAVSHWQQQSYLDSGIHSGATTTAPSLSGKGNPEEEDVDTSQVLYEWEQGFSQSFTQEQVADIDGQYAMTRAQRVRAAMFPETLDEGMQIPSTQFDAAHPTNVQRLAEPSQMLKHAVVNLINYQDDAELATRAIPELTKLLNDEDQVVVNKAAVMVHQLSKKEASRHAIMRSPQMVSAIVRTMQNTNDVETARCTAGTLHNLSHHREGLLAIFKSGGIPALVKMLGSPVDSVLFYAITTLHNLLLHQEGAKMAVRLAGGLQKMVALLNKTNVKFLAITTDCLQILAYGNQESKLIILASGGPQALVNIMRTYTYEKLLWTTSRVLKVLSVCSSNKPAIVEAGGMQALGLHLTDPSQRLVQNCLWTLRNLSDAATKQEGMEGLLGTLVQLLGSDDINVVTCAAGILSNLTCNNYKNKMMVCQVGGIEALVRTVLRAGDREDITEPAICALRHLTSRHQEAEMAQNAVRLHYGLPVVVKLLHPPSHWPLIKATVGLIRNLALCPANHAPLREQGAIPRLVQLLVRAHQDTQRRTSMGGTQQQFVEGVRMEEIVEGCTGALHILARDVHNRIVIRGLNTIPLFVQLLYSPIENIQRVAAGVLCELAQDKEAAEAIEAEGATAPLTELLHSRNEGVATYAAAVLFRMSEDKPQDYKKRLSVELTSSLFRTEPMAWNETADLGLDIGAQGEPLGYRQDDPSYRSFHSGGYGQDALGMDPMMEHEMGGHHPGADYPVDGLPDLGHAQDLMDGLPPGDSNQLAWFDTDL
Nature of the experiment: fluorescence polarization competition; 10 nM full-length beta-catenin + 10 nM 5FAM-TCF4(10-53) probe. How it is done:
The plate was incubated protected from light for 60 minutes at 20° C. prior to read. Reads were performed on a CLARIOstar plate reader (BMG Labtech) in duplicate, and data were fitted to a 1:1 binding model with hill slope using an in-house script. All provided concentrations are final concentrations.

B1: I-724 (peptide)
peptide: Ac-[αAllylPro]DI[B5]DEAA[Phe(3-OMe)]Q[S8]F[Bta]Q-NH2
modifications: staple 1-4, 4-11
notes: Stapled peptide composition
B1 registered a half-maximal effective concentration (EC50) in experiment [1] of 0.114 µM.

B2: I-505 (peptide)
peptide: Ac-[αAllylPro]DL[B5(6)]DEAAFQ[S8]F[Bta]Q-NH2
modifications: staple 1-4, 4-11
notes: Stapled peptide composition; also called Ac-PL3-Asp-Leu-B5-Asp-Glu-Ala-Ala-Phe-Gln-S8-Phe-BztA-Gln-NH2
In experiment [2], B2 gave a half-inhibitory concentration (IC50) of 5.6 µM. For the same molecule, the “DLD1 reporter assay Abs IC50” value in experiment [3] worked out at 10.8 µM. Moreover, in experiment [4], the “NanoBRET Abs IC50” value was found to be 4.9 µM. Further, the EC50 in experiment [5] amounted to 0.023 µM.
